Results: patent US20190225650A1, “PEPTIDOMIMETIC MACROCYCLES AND USE THEREOF IN REGULATING HIF1ALPHA” (AILERON THERAPEUTICS, INC., priority 2013, published 2019)
Bridge positions count the residues as written; N and C are the ends. Square brackets hold non-standard residues; d marks the D form. S5 = C=CCCC[C@](C)(N)C(=O)O; Nle = CCCC[C@H](N)C(=O)O

B1: SP-42 (peptide)
peptide: Ac-FIDEEVL[Nle][S5]LVI[S5][Nle]ALDRE-NH2
modifications: staple 9-13
SMILES: CCCC[C@H](NC(=O)[C@H](CC(C)C)NC(=O)[C@@H](NC(=O)[C@H](CCC(=O)O)NC(=O)[C@H](CCC(=O)O)NC(=O)[C@H](CC(=O)O)NC(=O)[C@@H](NC(=O)[C@H](Cc1ccccc1)NC(C)=O)[C@@H](C)CC)C(C)C)C(=O)N[C@@]1(C)CCCC=CCCC[C@@](C)(C(=O)N[C@@H](CCCC)C(=O)N[C@@H](C)C(=O)N[C@@H](CC(C)C)C(=O)N[C@@H](CC(=O)O)C(=O)N[C@@H](CCCNC(=N)N)C(=O)N[C@@H](CCC(=O)O)C(N)=O)NC(=O)[C@H]([C@@H](C)CC)NC(=O)[C@H](C(C)C)NC(=O)[C@H](CC(C)C)NC1=O
B2: SP-58 (peptide)
peptide: Ac-FIDEEVL[Nle][S5]LVI[S5][Nle]ALDSI-NH2
modifications: staple 9-13
SMILES: CCCC[C@H](NC(=O)[C@H](CC(C)C)NC(=O)[C@@H](NC(=O)[C@H](CCC(=O)O)NC(=O)[C@H](CCC(=O)O)NC(=O)[C@H](CC(=O)O)NC(=O)[C@@H](NC(=O)[C@H](Cc1ccccc1)NC(C)=O)[C@@H](C)CC)C(C)C)C(=O)N[C@@]1(C)CCCC=CCCC[C@@](C)(C(=O)N[C@@H](CCCC)C(=O)N[C@@H](C)C(=O)N[C@@H](CC(C)C)C(=O)N[C@@H](CC(=O)O)C(=O)N[C@@H](CO)C(=O)N[C@H](C(N)=O)[C@@H](C)CC)NC(=O)[C@H]([C@@H](C)CC)NC(=O)[C@H](C(C)C)NC(=O)[C@H](CC(C)C)NC1=O
B3: SP-48 (peptide)
peptide: Ac-FIDEESL[Nle][S5]LVI[S5][Nle]ALDRI-NH2
modifications: staple 9-13
SMILES: CCCC[C@H](NC(=O)[C@H](CC(C)C)NC(=O)[C@H](CO)NC(=O)[C@H](CCC(=O)O)NC(=O)[C@H](CCC(=O)O)NC(=O)[C@H](CC(=O)O)NC(=O)[C@@H](NC(=O)[C@H](Cc1ccccc1)NC(C)=O)[C@@H](C)CC)C(=O)N[C@@]1(C)CCCC=CCCC[C@@](C)(C(=O)N[C@@H](CCCC)C(=O)N[C@@H](C)C(=O)N[C@@H](CC(C)C)C(=O)N[C@@H](CC(=O)O)C(=O)N[C@@H](CCCNC(=N)N)C(=O)N[C@H](C(N)=O)[C@@H](C)CC)NC(=O)[C@H]([C@@H](C)CC)NC(=O)[C@H](C(C)C)NC(=O)[C@H](CC(C)C)NC1=O
B4: SP-45 (peptide)
peptide: Ac-FSDEEVL[Nle][S5]LVI[S5][Nle]ALDRI-NH2
modifications: staple 9-13
SMILES: CCCC[C@H](NC(=O)[C@H](CC(C)C)NC(=O)[C@@H](NC(=O)[C@H](CCC(=O)O)NC(=O)[C@H](CCC(=O)O)NC(=O)[C@H](CC(=O)O)NC(=O)[C@H](CO)NC(=O)[C@H](Cc1ccccc1)NC(C)=O)C(C)C)C(=O)N[C@@]1(C)CCCC=CCCC[C@@](C)(C(=O)N[C@@H](CCCC)C(=O)N[C@@H](C)C(=O)N[C@@H](CC(C)C)C(=O)N[C@@H](CC(=O)O)C(=O)N[C@@H](CCCNC(=N)N)C(=O)N[C@H](C(N)=O)[C@@H](C)CC)NC(=O)[C@H]([C@@H](C)CC)NC(=O)[C@H](C(C)C)NC(=O)[C@H](CC(C)C)NC1=O
B5: SP-69 (peptide)
peptide: Ac-FIDEQVL[Nle][S5]LVI[S5][Nle]ALDRI-NH2
modifications: staple 9-13
SMILES: CCCC[C@H](NC(=O)[C@H](CC(C)C)NC(=O)[C@@H](NC(=O)[C@H](CCC(N)=O)NC(=O)[C@H](CCC(=O)O)NC(=O)[C@H](CC(=O)O)NC(=O)[C@@H](NC(=O)[C@H](Cc1ccccc1)NC(C)=O)[C@@H](C)CC)C(C)C)C(=O)N[C@@]1(C)CCCC=CCCC[C@@](C)(C(=O)N[C@@H](CCCC)C(=O)N[C@@H](C)C(=O)N[C@@H](CC(C)C)C(=O)N[C@@H](CC(=O)O)C(=O)N[C@@H](CCCNC(=N)N)C(=O)N[C@H](C(N)=O)[C@@H](C)CC)NC(=O)[C@H]([C@@H](C)CC)NC(=O)[C@H](C(C)C)NC(=O)[C@H](CC(C)C)NC1=O
B6: SP-49 (peptide)
peptide: Ac-FIDEEVS[Nle][S5]LVI[S5][Nle]ALDRI-NH2
modifications: staple 9-13
SMILES: CCCC[C@H](NC(=O)[C@H](CO)NC(=O)[C@@H](NC(=O)[C@H](CCC(=O)O)NC(=O)[C@H](CCC(=O)O)NC(=O)[C@H](CC(=O)O)NC(=O)[C@@H](NC(=O)[C@H](Cc1ccccc1)NC(C)=O)[C@@H](C)CC)C(C)C)C(=O)N[C@@]1(C)CCCC=CCCC[C@@](C)(C(=O)N[C@@H](CCCC)C(=O)N[C@@H](C)C(=O)N[C@@H](CC(C)C)C(=O)N[C@@H](CC(=O)O)C(=O)N[C@@H](CCCNC(=N)N)C(=O)N[C@H](C(N)=O)[C@@H](C)CC)NC(=O)[C@H]([C@@H](C)CC)NC(=O)[C@H](C(C)C)NC(=O)[C@H](CC(C)C)NC1=O
B7: SP-52 (peptide)
peptide: Ac-FIDEEVL[Nle][S5]LSI[S5][Nle]ALDRI-NH2
modifications: staple 9-13
SMILES: CCCC[C@H](NC(=O)[C@H](CC(C)C)NC(=O)[C@@H](NC(=O)[C@H](CCC(=O)O)NC(=O)[C@H](CCC(=O)O)NC(=O)[C@H](CC(=O)O)NC(=O)[C@@H](NC(=O)[C@H](Cc1ccccc1)NC(C)=O)[C@@H](C)CC)C(C)C)C(=O)N[C@@]1(C)CCCC=CCCC[C@@](C)(C(=O)N[C@@H](CCCC)C(=O)N[C@@H](C)C(=O)N[C@@H](CC(C)C)C(=O)N[C@@H](CC(=O)O)C(=O)N[C@@H](CCCNC(=N)N)C(=O)N[C@H](C(N)=O)[C@@H](C)CC)NC(=O)[C@H]([C@@H](C)CC)NC(=O)[C@H](CO)NC(=O)[C@H](CC(C)C)NC1=O
B8: SP-44 (peptide)
peptide: Ac-SIDEEVL[Nle][S5]LVI[S5][Nle]ALDRI-NH2
modifications: staple 9-13
SMILES: CCCC[C@H](NC(=O)[C@H](CC(C)C)NC(=O)[C@@H](NC(=O)[C@H](CCC(=O)O)NC(=O)[C@H](CCC(=O)O)NC(=O)[C@H](CC(=O)O)NC(=O)[C@@H](NC(=O)[C@H](CO)NC(C)=O)[C@@H](C)CC)C(C)C)C(=O)N[C@@]1(C)CCCC=CCCC[C@@](C)(C(=O)N[C@@H](CCCC)C(=O)N[C@@H](C)C(=O)N[C@@H](CC(C)C)C(=O)N[C@@H](CC(=O)O)C(=O)N[C@@H](CCCNC(=N)N)C(=O)N[C@H](C(N)=O)[C@@H](C)CC)NC(=O)[C@H]([C@@H](C)CC)NC(=O)[C@H](C(C)C)NC(=O)[C@H](CC(C)C)NC1=O
B9: SP-29 (peptide)
peptide: Ac-DFIDEEVL[Nle][S5]LVI[S5][Nle]ALDRI-NH2
modifications: staple 10-14
SMILES: CCCC[C@H](NC(=O)[C@H](CC(C)C)NC(=O)[C@@H](NC(=O)[C@H](CCC(=O)O)NC(=O)[C@H](CCC(=O)O)NC(=O)[C@H](CC(=O)O)NC(=O)[C@@H](NC(=O)[C@H](Cc1ccccc1)NC(=O)[C@H](CC(=O)O)NC(C)=O)[C@@H](C)CC)C(C)C)C(=O)N[C@@]1(C)CCCC=CCCC[C@@](C)(C(=O)N[C@@H](CCCC)C(=O)N[C@@H](C)C(=O)N[C@@H](CC(C)C)C(=O)N[C@@H](CC(=O)O)C(=O)N[C@@H](CCCNC(=N)N)C(=O)N[C@H](C(N)=O)[C@@H](C)CC)NC(=O)[C@H]([C@@H](C)CC)NC(=O)[C@H](C(C)C)NC(=O)[C@H](CC(C)C)NC1=O

Molecular target: T1, His6-tagged p300 (AA 323-423) (UniProt Q09472 323-423)
T1 construct: range 323-423; also called p300-CH; not shown: His6 tag
T1 sequence (Q09472 323-423 limits assumed): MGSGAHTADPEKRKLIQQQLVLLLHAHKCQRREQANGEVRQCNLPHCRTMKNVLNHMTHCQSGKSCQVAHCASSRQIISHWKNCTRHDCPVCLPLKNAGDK
Assay: TR-FRET HIF1a/p300 displacement; grade = IC50 >700 nM
How it was run: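 Competitor peptides were added to the HIF1α CTAD/p300 complex (300 nM final) in 150 mM NaCl, 20 mM HEPES pH 7.4, 7.5 mM CHAPS and 1 mM DTT for 1 h at room temperature. Anti-Flag-K (0.5 μM) and anti-6×His-D2 (4 nM) then followed for 2 h. IC50 came from a one-site logIC50 fit of the donor/acceptor ratio.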

IC50, > 700 nM:
B1
B2
B3
B4
B5
B6
B7
B8
B9
